Assay [1] concerns the target T1, TGF-β1 (Homo sapiens, UniProt P01137). Description: SPR.
The target in assay [2] is T1, TGF-β1. Description: SPR. The source holds these as a separate data set.
For assay [3], the target named is T1, TGF-β1. Description: sequestering from PRP by peptide-conjugated microspheres.
In assay [4] the target is T1, TGF-β1. Briefly: 125I-TGF-β1 sequestering in 10% serum by peptide-conjugated microspheres.

Here are results for four molecules from publication PMC9254699 (2021).

No end group written: not given here.

T1 sequence (P01137 279-390): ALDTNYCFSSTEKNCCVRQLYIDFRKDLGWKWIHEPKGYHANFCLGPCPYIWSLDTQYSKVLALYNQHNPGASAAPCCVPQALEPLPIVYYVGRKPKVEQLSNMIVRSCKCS

Regarding CLIDFRIPADREVPI [Scrambled RIP], the Kd in the assay with TGF-β1 [1] came out at 745 nM; in the assay with TGF-β1 [2], 765 nM.
Consider CIAEIDLIPRDRPFV [RIP], for which the Kd turned out to be 98.3 nM in the assay with TGF-β1 [1] and 60 nM with TGF-β1 [2].
Consider CIAEIDLIPRDRPF, for which the Kd in the assay with TGF-β1 [1] came to 183 nM; with TGF-β1 [2] it was 106 nM.
With CIAEIDLIPRDRPF (also: conjugated to PEG microspheres), the results for the Kd with TGF-β1 [3] and in the assay with TGF-β1 [4] were roughly 215 nM and roughly 211 nM, respectively.
